6 molecules from US5840867 can be followed below.

The labels stand for the following.
B1: 15-mer GGTTGGTGTGGTU'GG (ssDNA)
DNA: GGTTGGTGTGGTTGG
modifications: 5-(1-pentynyl)uracil at position 13 [13 = 5-(1-pentynyl)uracil (dU analog written as T)]

The target of this series is thrombin (UniProt P00734;P00734 P00734:328-363,P00734:364-622). Kind of series: inhibition; fibrinogen clotting assay.
A word on the Ki: it is the dissociation constant of the complex between target and ligand, obtained from inhibition or displacement. Low readings indicate higher affinity, high ones lower affinity. As to B1, the Ki was found to be 20 nM. With GGTTGGTGTGGTTGG (ssDNA, dU at positions 3 and 12 [n positions 3,12 = modified dU]) [15-mer GG(dU)TGGTGTGG(dU)TGG] the figure was 80 nM; with GGTTGGTGTGGTTGG (ssDNA, PS at all linkages) [15-mer all thioate], 280 nM.

Molecule GGTTGGTGTGGTTGG (ssDNA, dU at positions 7 and 9 [n positions 7,9 = modified dU]) [15-mer GGTTGG(dU)G(dU)GGTTGG] displayed a Ki of 15 nM. GGTTGGTGTGGTTGGGT (ssDNA, P(O)NH(CH2CH2OCH3) (MEA) linkages between 15-16 and 16-17) [17-mer with 3' MEA linkages GGTTGGTGTGGTTGG#G#T] came in with a Ki of 35 nM. As to GGTTGGTGTGGTTGG (ssDNA, PS linkages between 13-14 and 14-15) [15-mer with 3' thioates GGTTGGTGTGGTT*G*G], affinity was put at a Ki of 40 nM.
